Data set [1] deals with Swi6-WT (Schizosaccharomyces pombe). The experiment in a line: EMSA. As to conditions: histone H3K9me3.
The next data set has as its target H3K9me3 mononucleosomes. The experiment in a line: native gel or EMSA.
The data set “mass photometry” deals with the molecule itself. As to the kind of experiment: mass photometry.
In the next data set the target is T1, MBP-Epe1 (S. pombe, UniProt O94603 1-948).
T1 sequence: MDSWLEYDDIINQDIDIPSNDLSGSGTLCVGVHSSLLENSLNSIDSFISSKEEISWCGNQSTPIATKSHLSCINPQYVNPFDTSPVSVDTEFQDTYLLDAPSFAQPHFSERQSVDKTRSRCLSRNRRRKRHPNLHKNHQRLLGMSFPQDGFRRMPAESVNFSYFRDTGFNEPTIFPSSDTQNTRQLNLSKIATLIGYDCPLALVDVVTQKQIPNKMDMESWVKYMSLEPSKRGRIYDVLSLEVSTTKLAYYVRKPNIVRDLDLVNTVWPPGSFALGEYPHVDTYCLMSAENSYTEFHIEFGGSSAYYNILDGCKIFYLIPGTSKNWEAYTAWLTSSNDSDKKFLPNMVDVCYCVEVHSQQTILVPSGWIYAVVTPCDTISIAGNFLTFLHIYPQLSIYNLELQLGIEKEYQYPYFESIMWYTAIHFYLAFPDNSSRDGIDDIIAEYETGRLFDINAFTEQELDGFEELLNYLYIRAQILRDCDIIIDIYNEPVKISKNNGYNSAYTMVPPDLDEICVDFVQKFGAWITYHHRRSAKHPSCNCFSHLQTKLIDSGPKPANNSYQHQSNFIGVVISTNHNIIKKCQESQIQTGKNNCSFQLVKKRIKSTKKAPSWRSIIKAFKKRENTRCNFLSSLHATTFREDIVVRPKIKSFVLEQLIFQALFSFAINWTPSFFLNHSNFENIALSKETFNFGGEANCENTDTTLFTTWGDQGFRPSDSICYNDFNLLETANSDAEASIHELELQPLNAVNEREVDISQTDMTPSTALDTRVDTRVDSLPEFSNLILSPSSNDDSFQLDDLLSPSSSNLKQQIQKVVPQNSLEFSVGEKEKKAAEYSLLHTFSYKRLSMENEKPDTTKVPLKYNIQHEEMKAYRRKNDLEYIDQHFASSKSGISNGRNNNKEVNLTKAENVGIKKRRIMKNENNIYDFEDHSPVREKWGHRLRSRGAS
The experiment in a line: pull-down.

Experimental findings from article PMC10705379 (bioRxiv, 2023) are described below.

Take “H3K9me3 mononucleosome (Epicypher 16-0315-20)”: in data set [1], the Kd was found to be 50 nM.

As for “Swi6-T278Y (recombinant, full length) (from UniProt P40381 1-328) (natural protein)”, in the data set with H3K9me3 mononucleosomes, the equilibrium dissociation constant (Kd) was found to be 39 nM and the specificity for H3K9me3 over H3K9me0 mononucleosomes was 2.3 fold.

B1: Swi6-WT (recombinant, full length) (natural protein)
chain: MKKGGVRSYRRSSTSKRSVIDDDSEPELPSMTKEAIASHKADSGSSDNEVESDHESKSSSKKLKENAKEEEGGEEEEEDEYVVEKVLKHRMARKGGGYEYLLKWEGYDDPSDNTWSSEADCSGCKQLIEAYWNEHGGRPEPSKRKRTARPKKPEAKEPSPKSRKTDEDKHDKDSNEKIEDVNEKTIKFADKSQEEFNENGPPSGQPNGHIESDNESKSPSQKESNESEDIQIAETPSNVTPKKKPSPEVPKLPDNRELTVKQVENYDSWEDLVSSIDTIERKDDGTLEIYLTWKNGAISHHPSTITNKKCPQKMLQFYESHLTFRENE
As for B1, in the data set “mass photometry”, the affinity, expressed as Kd, was 0.38 nM and the “stoichiometry N” value turned out to be 2. In the data set with H3K9me3 mononucleosomes, this molecule displayed a Kd of 50 nM and a specificity for H3K9me3 over H3K9me0 mononucleosomes of 2.4 fold.

B2: FLAG-Swi6-WT (recombinant) (natural protein)
chain: MKKGGVRSYRRSSTSKRSVIDDDSEPELPSMTKEAIASHKADSGSSDNEVESDHESKSSSKKLKENAKEEEGGEEEEEDEYVVEKVLKHRMARKGGGYEYLLKWEGYDDPSDNTWSSEADCSGCKQLIEAYWNEHGGRPEPSKRKRTARPKKPEAKEPSPKSRKTDEDKHDKDSNEKIEDVNEKTIKFADKSQEEFNENGPPSGQPNGHIESDNESKSPSQKESNESEDIQIAETPSNVTPKKKPSPEVPKLPDNRELTVKQVENYDSWEDLVSSIDTIERKDDGTLEIYLTWKNGAISHHPSTITNKKCPQKMLQFYESHLTFRENE
Turning to B2, the binding result with MBP-Epe1 is on record as “binds”.

B3: Swi6-T278K (recombinant, full length) (natural protein)
chain: MKKGGVRSYRRSSTSKRSVIDDDSEPELPSMTKEAIASHKADSGSSDNEVESDHESKSSSKKLKENAKEEEGGEEEEEDEYVVEKVLKHRMARKGGGYEYLLKWEGYDDPSDNTWSSEADCSGCKQLIEAYWNEHGGRPEPSKRKRTARPKKPEAKEPSPKSRKTDEDKHDKDSNEKIEDVNEKTIKFADKSQEEFNENGPPSGQPNGHIESDNESKSPSQKESNESEDIQIAETPSNVTPKKKPSPEVPKLPDNRELTVKQVENYDSWEDLVSSIDKIERKDDGTLEIYLTWKNGAISHHPSTITNKKCPQKMLQFYESHLTFRENE
On to B3, for which, in “mass photometry”, the Kd stood at 0.2 nM and the “stoichiometry N” value worked out at 2.

B4: Swi6-T278Y (recombinant, full length) (natural protein)
chain: MKKGGVRSYRRSSTSKRSVIDDDSEPELPSMTKEAIASHKADSGSSDNEVESDHESKSSSKKLKENAKEEEGGEEEEEDEYVVEKVLKHRMARKGGGYEYLLKWEGYDDPSDNTWSSEADCSGCKQLIEAYWNEHGGRPEPSKRKRTARPKKPEAKEPSPKSRKTDEDKHDKDSNEKIEDVNEKTIKFADKSQEEFNENGPPSGQPNGHIESDNESKSPSQKESNESEDIQIAETPSNVTPKKKPSPEVPKLPDNRELTVKQVENYDSWEDLVSSIDYIERKDDGTLEIYLTWKNGAISHHPSTITNKKCPQKMLQFYESHLTFRENE
As to B4, in “mass photometry”, the affinity, expressed as Kd, was 0.27 nM and the “stoichiometry N” value is 2.
